Source: publication PMC3862839, “From Knock-Out Phenotype to Three-Dimensional Structure of a Promising Antibiotic Target from Streptococcus pneumoniae” (PLoS ONE, 2013)

B1: Streptococcus pneumoniae dihydrodipicolinate synthase (enzyme, UniProt Q97R25 1-311, looked up)
chain: MSYQDLKKCKIITAFITPFHEDGSINFDAIPALIEHLLAHHTDGILLAGTTAESPTLTHDEELELFAAVQKVVNGRVPLIAGVGTNDTRDSIEFVKEVAEFGGFAAGLAIVPYYNKPSQEGMYQHFKTIADASDLPIIIYNIPGRVVVELTPETMLRLADHPNIIGVKECTSLANMAYLIEHKPEEFLIYTGEDGDAFHAMNLGADGVISVASHTNGDEMHEMFTAIAESDMKKAAAIQRKFIPKVNALFSYPSPAPVKAILNYMGFEAGPTRLPLVPAPEEDAKRIIKVVVDGDYEATKATVTGVLRPDY
notes: Dihydrodipicolinate synthase (DHDPS, product of dapA) of Streptococcus pneumoniae; Homotetramer (dimer of 'tight' dimers) in solution and in the crystal; also called Sp-DHDPS; sp-DHDPS

Tests used:
[1] = biological target: Ec-DHDPS (dimer) (Escherichia coli) (UniProt P0A6L2); conditions: cited from earlier work
purified protein [2] = substrate: CC(=O)C(=O)O; experiment: purified protein; conditions: co-substrate (S)-ASA 0-0.48 mM, 250 mM HEPES pH 8.0, 30 °C, 0.2 mM NADPH, 20 nM enzyme, global ping-pong fit without substrate inhibition
Text: (§1) DHDPS-DHDPR coupled assay, NADPH oxidation on Sp-DHDPS (dihydrodipicolinate synthase)

purified protein [3] = substrate: N[C@@H](CC=O)C(=O)O; experiment: purified protein; conditions: co-substrate pyruvate 0.5-16 mM, 250 mM HEPES pH 8.0, 30 °C, 0.2 mM NADPH, 20 nM enzyme, global ping-pong fit without substrate inhibition
Text: as §1

[4] = biological target: the molecule itself; experiment: AUC; sedimentation equilibrium, 10,000 and 18,000 rpm, 20°C, 20 mM Tris-HCl pH 8.0, 150 mM NaCl; 296, 355 and 740 nM Sp-DHDPS; global fit to a dimer-tetramer model (SEDPHAT); tetramer to dimers
[5] = biological target: the molecule itself; experiment: AUC; sedimentation velocity, 40,000 rpm, 20°C, 20 mM Tris-HCl pH 8.0, 150 mM NaCl; Sp-DHDPS at 4.5 µM and at 740 nM; c(s) and c(M) distributions (SEDFIT)

Molecule | Kd [1] | Km (purified protein [2]) | kcat (purified protein [2]) | Km (purified protein [3]) | kcat (purified protein [3]) | Kd [4] | stoichiometry N [5]
Ec-DHDPS (dimer) (from UniProt P0A6L2) | 76 nM | – | – | – | – | – | –
B1 | – | 2550 ± 50 µM | 22 s⁻¹ | 44 ± 3 µM | 22 s⁻¹ | 1.7 nM | 4
